Source: the supplement of paper PMC9112550, “Optimization of the antimicrobial peptide Bac7 by deep mutational scanning” (BMC Biology, 2022)

Tested on: Escherichia coli TOP10
Assay: shrunken log2 fold change of peptide-encoding DNA abundance (4.5 h post-induction vs induction); higher = less antimicrobial activity (less host growth inhibition)
Conditions: time post-induction: 4.5 h; library: site-saturation at positions 5, 18, 19, 20
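Note: peptides expressed intracellularly from a pBAD plasmid library in pooled LB shake-flask culture, induced with 0.3% L-arabinose, DNA abundance read by NGS, three biological replicates, DESeq2 with apeglm shrinkage.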

RRIRTRPPRLPRPRPRPTNVPRP
shrunken log2 fold change: 0.118

RRIRTRPPRLPRPRPRPTPQPRP
shrunken log2 fold change: 0.241

RRIRTRPPRLPRPRPRPTPSPRP
shrunken log2 fold change: 0.563

RRIRTRPPRLPRPRPRPTPWPRP
shrunken log2 fold change: 0.411

RRIRTRPPRLPRPRPRPTQGPRP
shrunken log2 fold change: 0.358

RRIRTRPPRLPRPRPRPTRSPRP
shrunken log2 fold change: -0.111

RRIRTRPPRLPRPRPRPTSAPRP
shrunken log2 fold change: 0.587

RRIRTRPPRLPRPRPRPTSLPRP
shrunken log2 fold change: -0.123

RRIRTRPPRLPRPRPRPTTLPRP
shrunken log2 fold change: -0.316

RRIRTRPPRLPRPRPRPTWRPRP
shrunken log2 fold change: 0.233

RRIRTRPPRLPRPRPRPTYPPRP
shrunken log2 fold change: 0.0247

RRIRTRPPRLPRPRPRPTYSPRP
shrunken log2 fold change: -1.56

RRIRTRPPRLPRPRPRPVAIPRP
shrunken log2 fold change: -0.168

RRIRTRPPRLPRPRPRPVCVPRP
shrunken log2 fold change: 0.182

RRIRTRPPRLPRPRPRPVCWPRP
shrunken log2 fold change: 0.304

RRIRTRPPRLPRPRPRPVENPRP
shrunken log2 fold change: -0.146

RRIRTRPPRLPRPRPRPVFEPRP
shrunken log2 fold change: -0.289

RRIRTRPPRLPRPRPRPVFMPRP
shrunken log2 fold change: -0.25

RRIRTRPPRLPRPRPRPVFVPRP
shrunken log2 fold change: 0.0253

RRIRTRPPRLPRPRPRPVFWPRP
shrunken log2 fold change: 0.386

RRIRTRPPRLPRPRPRPVGGPRP
shrunken log2 fold change: 0.837

RRIRTRPPRLPRPRPRPVGLPRP
shrunken log2 fold change: -0.00734

RRIRTRPPRLPRPRPRPVGWPRP
shrunken log2 fold change: 0.753

RRIRTRPPRLPRPRPRPVHPPRP
shrunken log2 fold change: -0.579

RRIRTRPPRLPRPRPRPVIWPRP
shrunken log2 fold change: 0.128

RRIRTRPPRLPRPRPRPVLYPRP
shrunken log2 fold change: -0.365

RRIRTRPPRLPRPRPRPVMGPRP
shrunken log2 fold change: -0.0279

RRIRTRPPRLPRPRPRPVMLPRP
shrunken log2 fold change: -0.157

RRIRTRPPRLPRPRPRPVNQPRP
shrunken log2 fold change: 0.0163

RRIRTRPPRLPRPRPRPVRDPRP
shrunken log2 fold change: 0.543

RRIRTRPPRLPRPRPRPVRSPRP
shrunken log2 fold change: 0.641

RRIRTRPPRLPRPRPRPVTFPRP
shrunken log2 fold change: -0.0266

RRIRTRPPRLPRPRPRPVTGPRP
shrunken log2 fold change: -0.083

RRIRTRPPRLPRPRPRPVTPPRP
shrunken log2 fold change: 0.184

RRIRTRPPRLPRPRPRPVTYPRP
shrunken log2 fold change: 0.0141

RRIRTRPPRLPRPRPRPVVDPRP
shrunken log2 fold change: 0.452

RRIRTRPPRLPRPRPRPVWDPRP
shrunken log2 fold change: 0.13

RRIRTRPPRLPRPRPRPWCFPRP
shrunken log2 fold change: -0.046

RRIRTRPPRLPRPRPRPWDLPRP
shrunken log2 fold change: 0.12

RRIRTRPPRLPRPRPRPWFNPRP
shrunken log2 fold change: -0.471

RRIRTRPPRLPRPRPRPWFQPRP
shrunken log2 fold change: -0.195

RRIRTRPPRLPRPRPRPWFVPRP
shrunken log2 fold change: -0.243

RRIRTRPPRLPRPRPRPWGIPRP
shrunken log2 fold change: -0.0774

RRIRTRPPRLPRPRPRPWHQPRP
shrunken log2 fold change: -0.0236

RRIRTRPPRLPRPRPRPWIQPRP
shrunken log2 fold change: -0.194

RRIRTRPPRLPRPRPRPWKIPRP
shrunken log2 fold change: -0.0703

RRIRTRPPRLPRPRPRPWKVPRP
shrunken log2 fold change: -0.00663

RRIRTRPPRLPRPRPRPWLCPRP
shrunken log2 fold change: 0.0607

RRIRTRPPRLPRPRPRPWNEPRP
shrunken log2 fold change: 0.00902

RRIRTRPPRLPRPRPRPWNNPRP
shrunken log2 fold change: -0.256

RRIRTRPPRLPRPRPRPWNWPRP
shrunken log2 fold change: 0.0309

RRIRTRPPRLPRPRPRPWPYPRP
shrunken log2 fold change: -0.157

RRIRTRPPRLPRPRPRPWQEPRP
shrunken log2 fold change: 0.0948

RRIRTRPPRLPRPRPRPWQHPRP
shrunken log2 fold change: -0.0511

RRIRTRPPRLPRPRPRPWRTPRP
shrunken log2 fold change: 0.112

RRIRTRPPRLPRPRPRPWSSPRP
shrunken log2 fold change: -0.241

RRIRTRPPRLPRPRPRPWWEPRP
shrunken log2 fold change: 0.00671

RRIRTRPPRLPRPRPRPWWLPRP
shrunken log2 fold change: 0.125

RRIRTRPPRLPRPRPRPYAWPRP
shrunken log2 fold change: -0.0721

RRIRTRPPRLPRPRPRPYDRPRP
shrunken log2 fold change: -0.221

RRIRTRPPRLPRPRPRPYGNPRP
shrunken log2 fold change: -0.0638

RRIRTRPPRLPRPRPRPYHFPRP
shrunken log2 fold change: -0.28

RRIRTRPPRLPRPRPRPYICPRP
shrunken log2 fold change: -0.143

RRIRTRPPRLPRPRPRPYKEPRP
shrunken log2 fold change: -0.228

RRIRTRPPRLPRPRPRPYLGPRP
shrunken log2 fold change: -0.00172

RRIRTRPPRLPRPRPRPYLMPRP
shrunken log2 fold change: -0.601

RRIRTRPPRLPRPRPRPYLVPRP
shrunken log2 fold change: -0.489

RRIRTRPPRLPRPRPRPYMRPRP
shrunken log2 fold change: -0.48

RRIRTRPPRLPRPRPRPYQAPRP
shrunken log2 fold change: -0.206

RRIRTRPPRLPRPRPRPYRGPRP
shrunken log2 fold change: -0.519

RRIRTRPPRLPRPRPRPYRNPRP
shrunken log2 fold change: -0.21

RRIRTRPPRLPRPRPRPYTAPRP
shrunken log2 fold change: -0.389

RRIRTRPPRLPRPRPRPYTHPRP
shrunken log2 fold change: -0.338

RRIRTRPPRLPRPRPRPYVEPRP
shrunken log2 fold change: -1.12

RRIRTRPPRLPRPRPRPYWLPRP
shrunken log2 fold change: -0.486

RRIRTRPPRLPRPRPRPYYCPRP
shrunken log2 fold change: -0.249

RRIRVRPPRLPRPRPRPACFPRP
shrunken log2 fold change: 0.169

RRIRVRPPRLPRPRPRPACLPRP
shrunken log2 fold change: -0.444

RRIRVRPPRLPRPRPRPADPPRP
shrunken log2 fold change: 0.0239

RRIRVRPPRLPRPRPRPAFKPRP
shrunken log2 fold change: 0.086

RRIRVRPPRLPRPRPRPAHLPRP
shrunken log2 fold change: -0.0953

RRIRVRPPRLPRPRPRPAKAPRP
shrunken log2 fold change: 0.0673

RRIRVRPPRLPRPRPRPALHPRP
shrunken log2 fold change: 0.202

RRIRVRPPRLPRPRPRPALLPRP
shrunken log2 fold change: -0.211

RRIRVRPPRLPRPRPRPANCPRP
shrunken log2 fold change: 0.031

RRIRVRPPRLPRPRPRPANIPRP
shrunken log2 fold change: -0.156

RRIRVRPPRLPRPRPRPAPTPRP
shrunken log2 fold change: 0.638

RRIRVRPPRLPRPRPRPAQHPRP
shrunken log2 fold change: 0.151

RRIRVRPPRLPRPRPRPARNPRP
shrunken log2 fold change: 0.414

RRIRVRPPRLPRPRPRPARVPRP
shrunken log2 fold change: 0.263

RRIRVRPPRLPRPRPRPASEPRP
shrunken log2 fold change: 0.0395

RRIRVRPPRLPRPRPRPASLPRP
shrunken log2 fold change: -0.372

RRIRVRPPRLPRPRPRPASPPRP
shrunken log2 fold change: 0.102

RRIRVRPPRLPRPRPRPATEPRP
shrunken log2 fold change: -0.0882

RRIRVRPPRLPRPRPRPATRPRP
shrunken log2 fold change: 0.383

RRIRVRPPRLPRPRPRPATSPRP
shrunken log2 fold change: -0.0495

RRIRVRPPRLPRPRPRPAVIPRP
shrunken log2 fold change: -0.0266

RRIRVRPPRLPRPRPRPCCRPRP
shrunken log2 fold change: 0.0482

RRIRVRPPRLPRPRPRPCCWPRP
shrunken log2 fold change: -0.087

RRIRVRPPRLPRPRPRPCDIPRP
shrunken log2 fold change: -0.149

RRIRVRPPRLPRPRPRPCDKPRP
shrunken log2 fold change: -0.323

RRIRVRPPRLPRPRPRPCEAPRP
shrunken log2 fold change: 0.0719

RRIRVRPPRLPRPRPRPCECPRP
shrunken log2 fold change: 0.00846

RRIRVRPPRLPRPRPRPCENPRP
shrunken log2 fold change: -0.0135

RRIRVRPPRLPRPRPRPCEQPRP
shrunken log2 fold change: 0.211

RRIRVRPPRLPRPRPRPCFTPRP
shrunken log2 fold change: -0.0879

RRIRVRPPRLPRPRPRPCIKPRP
shrunken log2 fold change: -0.592

RRIRVRPPRLPRPRPRPCKYPRP
shrunken log2 fold change: -0.725

RRIRVRPPRLPRPRPRPCLWPRP
shrunken log2 fold change: 0.0452

RRIRVRPPRLPRPRPRPCMEPRP
shrunken log2 fold change: -1

RRIRVRPPRLPRPRPRPCMFPRP
shrunken log2 fold change: -0.559

RRIRVRPPRLPRPRPRPCMTPRP
shrunken log2 fold change: 0.0668

RRIRVRPPRLPRPRPRPCMWPRP
shrunken log2 fold change: 0.0384

RRIRVRPPRLPRPRPRPCNFPRP
shrunken log2 fold change: -0.0271

RRIRVRPPRLPRPRPRPCRIPRP
shrunken log2 fold change: -0.385

RRIRVRPPRLPRPRPRPCRRPRP
shrunken log2 fold change: -0.299

RRIRVRPPRLPRPRPRPCSWPRP
shrunken log2 fold change: -0.109

RRIRVRPPRLPRPRPRPCVLPRP
shrunken log2 fold change: -0.44

RRIRVRPPRLPRPRPRPCYGPRP
shrunken log2 fold change: -0.259

RRIRVRPPRLPRPRPRPCYKPRP
shrunken log2 fold change: -0.691

RRIRVRPPRLPRPRPRPDAPPRP
shrunken log2 fold change: 0.422

RRIRVRPPRLPRPRPRPDCYPRP
shrunken log2 fold change: -0.15

RRIRVRPPRLPRPRPRPDIDPRP
shrunken log2 fold change: -0.205

RRIRVRPPRLPRPRPRPDKLPRP
shrunken log2 fold change: -0.0511

RRIRVRPPRLPRPRPRPDKPPRP
shrunken log2 fold change: 0.028

RRIRVRPPRLPRPRPRPDLDPRP
shrunken log2 fold change: 0.156

RRIRVRPPRLPRPRPRPDMCPRP
shrunken log2 fold change: 0.0884

RRIRVRPPRLPRPRPRPDMFPRP
shrunken log2 fold change: 0.0441

RRIRVRPPRLPRPRPRPDMNPRP
shrunken log2 fold change: -0.548

RRIRVRPPRLPRPRPRPDNYPRP
shrunken log2 fold change: -0.222

RRIRVRPPRLPRPRPRPDQYPRP
shrunken log2 fold change: -0.234

RRIRVRPPRLPRPRPRPDTGPRP
shrunken log2 fold change: -0.00804

RRIRVRPPRLPRPRPRPDTYPRP
shrunken log2 fold change: -0.995

RRIRVRPPRLPRPRPRPDWFPRP
shrunken log2 fold change: -0.597

RRIRVRPPRLPRPRPRPDWSPRP
shrunken log2 fold change: -0.316

RRIRVRPPRLPRPRPRPDYKPRP
shrunken log2 fold change: 0.105

RRIRVRPPRLPRPRPRPDYRPRP
shrunken log2 fold change: -0.00433

RRIRVRPPRLPRPRPRPDYWPRP
shrunken log2 fold change: -0.449

RRIRVRPPRLPRPRPRPEAEPRP
shrunken log2 fold change: 0.807

RRIRVRPPRLPRPRPRPEDQPRP
shrunken log2 fold change: 0.0356

RRIRVRPPRLPRPRPRPEERPRP
shrunken log2 fold change: -0.194

RRIRVRPPRLPRPRPRPEFAPRP
shrunken log2 fold change: 0.169

RRIRVRPPRLPRPRPRPEFGPRP
shrunken log2 fold change: 0.177

RRIRVRPPRLPRPRPRPEFNPRP
shrunken log2 fold change: 0.203

RRIRVRPPRLPRPRPRPEHFPRP
shrunken log2 fold change: 0.131

RRIRVRPPRLPRPRPRPEIHPRP
shrunken log2 fold change: -0.0841

RRIRVRPPRLPRPRPRPEKEPRP
shrunken log2 fold change: 0.0209

RRIRVRPPRLPRPRPRPEKVPRP
shrunken log2 fold change: 0.13

RRIRVRPPRLPRPRPRPELVPRP
shrunken log2 fold change: 0.14

RRIRVRPPRLPRPRPRPEMCPRP
shrunken log2 fold change: -0.0885
